Data reported in the RNAGym collection of RNA variant scans (doi:10.1073/pnas.2313332121).
Fewer inactive variants are shown than the library holds.

B1: TPR 5TU (parent)
chain: GGAUCUUCUCGAUCUAACAAAAAAGACAAAUCUGCCACAAAGCUUGAGAGCAUCUUCGGAUGCAGAGGCGGCAGCCUUCGGUGGCGCGAUAGCGCCAACGUUCUCAACUAUGACACGCAAAACGCGUGCUCCGUUGAAUGGAGUUUAUCAUG

Variants of: B1
Experiment: polymerase ribozyme fitness, log enrichment relative to wild type (log ratio); higher = more active; in vitro selection for triplet polymerase activity
Outline: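 A heterodimeric triplet polymerase ribozyme had each of its subunits mutagenized by PCR into a library, which was transcribed. One round of in vitro selection, done in triplicate, annealed each library with a biotinylated primer, its partner subunit and triplets, then incubated it frozen at −7 °C before gel excision of extended constructs, streptavidin-bead capture and RT-PCR. Fitness is the logarithm of genotype enrichment relative to wild-type enrichment, based on Illumina sequencing of inputs and outputs and inverse-variance-weighted replicate averages. A base-2 logarithm is used, and genotypes were kept only with ≥10 input reads and ≥1 read per output.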

GGAUCUUCUCGAUCUAUCAAAAAAGACAAAUCUGCCACAAAGCUUGACAUCAUCUUCGGAUGCAGAGGCGGCAGCAUUCGGUGGCGCGAUAGAGCCAACGUUCUCAACUAUGACACGCAAAACGCGUGCUCCGUUGAAUGGAGUUUAUCAUG and GGAUCUUCUCGAUCUAGCAAAAAAGACAAAUCUGCCACAAAGCUUGAGAUCAUCUUCGGAUGCAGGGGCGGCAGCCUUCGGUGGCGCGAUACCGUCAACGUUCUCAACUAUGACACGCAAAACGCGUGCUCCGUUGAAUGAAGUUUAUCAUG cannot be ordered by “polymerase ribozyme fitness (log ratio)” value: no more than -4.2 for the first, no more than -4.2 for the second.

First: GGAUCUUCUCGAUCUAACAAAAAAGACAAAUCUGCCACAAAGCUUGAGAGCAUCUUCGGAUGCAGAGGCGGCAGCCUUCGGUGGUGCGAUAGCGCCAACGUUCUCAACUAUGACACACAAAACGCGUGCUCCGUUGAAUGGAGUUUAUCAUG
Second: GGUUCUUCUCGAUCUAACAAAAAAGACAAAUCUGCCACAAAGCUUGAGAGCAUCUUCGGAUGCAGAGGCGGCAGCCUUCGGUGGCGGGAUAGCGCCAACGUUCUCAACUAUGACACGCAAAACGCGUGCUCCGUUGAAUGGAGUUUAUCAUG
The “polymerase ribozyme fitness (log ratio)” value of the first is higher: 0.212 for the first, -3.94 for the second.

Compared with GGAUCUUCUCGACCUAACAAAAAAGACAAAUCUGCCACACAGCUUGACACCAUCUUCGGAUGCAGAGGCGGCAGCCUUCGGUUGCGCGAUAGCGCCAACGUUCUCAACUAUGACACGCAAAACGCGUGCUCCGUUGAAUGGAGUUUAUCAUG, GGAUCUUCUCGAUCUAACAAAAAAGACAAAUCUGCCACAAAGCUUGAGAGCAUCUUCGGAUGCAGAGGCGGCAGCCUUCGGUAGCGCGAUAGCGCCAACGUUCUCAACUAUGACACGCAAAACGCGUGCUCCGUUGAAUGGGGUUUAACAUG is higher in “polymerase ribozyme fitness (log ratio)” value: no more than -4.2 for the first, -4.11 for the second.

First: GGAUCUUCUCGAUCUAACAAAAAAGACAAAUCUGCCACAAAGCUUGAGAGCAUCAUCCGAUGCAGAGGCGGCAGCCUUCGGUGGCGCGAUAGCGCCAACGUUCUCAACUAUGACACGCAAAACGCGUGCUCCGUUGAAUGGAGUUUAUCAUG
Second: GGAUCUUCUCGAUCUAACAAAAAAGACAAAUCUGCCACAAAGCUUGAGAGCAUAUUCGGAUGCAGAGGCGGCAGCGUUCGGUGGCGCGUUAUCGCCAACGUUCUCAACUAUGACACGCAAAACGCGUGCGCCGUUGAAUGGAGUUUAUAAAG
The “polymerase ribozyme fitness (log ratio)” value of the first is higher: -0.661 for the first, no more than -4.2 for the second.

First: GGAUCUUCUCGAUCUAACAAAAAAGACAAAUCUGCCACAAAGCUUGAGUGCAUCUUCGGAUGCAGAGGCGGCAGCCUUCGGUGGCGCGAUAGCGCCAACGUUCUCAACUAUGACACGCAAAACGCGUGCUCCGUUGAAUGGAGUUUAUCAUG
Second: GGAUCUUAUCGAUCUAACAAAAAAGACAAAUGUGCCACAUAGCUUGAGAGCUUCUUCGGAUGCAGAGGCGGCUGCCUUCGGUGGCGCGAUUGCGCCAACGUUCUCAACUAUGACACGCAAAACGCGUGCUCCGUUGAAUGGAGUUUAUCAUG
The “polymerase ribozyme fitness (log ratio)” value of the first is higher: -0.673 for the first, no more than -4.2 for the second.

GGAUCUUCUCGAUCUAACAAAAAAGACAAAUCUGGCACAAAGCUUGAGAGCAUCUUCGGAUGCAGAGGCGGCAGCUUUCGGUGGCGCGAUAGCGCCAACGUUCUCAACUAUGACACGCAAAACGCGUGCUCCGUUGAAUGGAGUUUAUCAUG and GGAUCUUCUCGAUCUAACAAAAAAGAAAAAUCGGCCACGAAGCUUGAGAGCAUCUUCGGCUGCAGAGGCGGCAGCCUUCGGUGGCGCGAUAGUGCCAACGUUCUCAACUAUGACACGCAAAACGCGCGCUCCGUUGAAUAGAGUUUAUCAUG are within 0.2 log units of each other in “polymerase ribozyme fitness (log ratio)” value: -3.99 for the first, -4.14 for the second.

GGAUCUUCUCGAUCUAACAAAAAAGACCAAUCUGCCACAAACCUUGAGAGCAUCUUCGGAUGCAGAGGCGGCAGCGUUGGGUGGCCCGAGAGCGCCGACGUUCUCAACUAUGACACGCAAAACGCGUGCUCCGUUGAAUGGAGUCUAUCAUG and GGAUCUUCUCGAUCUAAAAAAAAAGACAAGUCUGCCAUAAAGCUUGACAGCAUCUUCGGAUGCAGAGGCGACAGCCUUCGGUGGCGCGUUAGCGCUCACGUUCUCAACUAUGACACGCAAAACGCGUGCUCCGUUGAAUGGAGUUUAUCAUG cannot be ordered by “polymerase ribozyme fitness (log ratio)” value: no more than -4.2 for the first, no more than -4.2 for the second.

Compared with GGAUCUUCUCGAUCUAACAAAAAAGACAAAUCUGCCCCAAAGCUUGAGAGCAUCUUCGGAUGCAGAGGCGUCAGCCUUCGGUGGCACGAUAGCGCCAACGUUCUCUACUAUGACACGCAAAACGCGUGCUCGGUUGAAUGGAGUGUAUCAUG, GGAUCUUCUCGAUCUAACAAAAAAGACAAAUCUGCCACAAAGCUUGAGAGCAUCUACGGAUGCAGAGGCGGCAGCCUUCGGUGGCGCGAUAGCGCGAACGUUCUCAACUAUGACACGCAAAACGCGUGCUCCGUUGAAGGGAGUUUAUCAUG is higher in “polymerase ribozyme fitness (log ratio)” value: no more than -4.2 for the first, -0.96 for the second.

First: GGAUCUUCUCGAUCUAACAAAAAAGACUAAUCUGCCACAAAGCUUGAGAGCAUCUUCGGAUGCAGAGGCGGCAGCCUUCGGUGGCGCGAUAACGCCAACGUUCUCAACUAUGACACGCAAAACGCGUGCUCCGUUGAAUCGAGUUUAUCAUG
Second: GGAUCUUCUCGAUCUAACAAAAAAGACAAAUCUGCCACAAAGCUUGAGAGUAUCUUCGGAUGCAGAGGCGGCAGCCUUCGGUGGCGCGAUAGCGUCAACGUUCGCAACUAUGACACGCAAAACGCGUGCUCCGUUGAAUGGAGAUUAUCAUG
The “polymerase ribozyme fitness (log ratio)” value of the first is lower: -3.61 for the first, -2.33 for the second.

For GGAUCUUCUCGAUCUAACAAAAAAGACAAAUCUGCCAUAAAGCUUGAGAGCAUCAUCGGAUGCAGAGGCGGCAGCCUUCGGUGGUGCGAUAGCGCCAACGUUCUCAACUAUGACACGCAAAACGCGUGCUCCGUUGAAUGGAGUUUAUCAUG, the “polymerase ribozyme fitness (log ratio)” value was -0.272.
